Source: paper PMC4675670

System: O=C(O)[C@@H]1CCCN1
Assay: enzyme kinetics, Km
Type: biochemical, Plasmodium falciparum
Conditions: proline-binding pocket

| Substance | Km |
| --- | --- |
| cytoplasmic prolyl-tRNA synthetase (PfcPRS, PF3D7_1213800) (Plasmodium falciparum 3D7) | 117.0 µM |
| cytoplasmic prolyl-tRNA synthetase (PfcPRS, PF3D7_1213800) (Plasmodium falciparum 3D7; L482H) | 747.7 µM |
